Consider 27 sequences from the supplement of paper PMC9170038.

The subject of the data set is MS2 coat protein. Kind of data set: apparent KD of MS2 coat protein; designed switch direction (-1 OFF switch, 1 ON switch): 1; higher = weaker reporter binding. Put shortly: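 The apparent KD reported per design is the median over clusters of curve fits to normalised cluster fluorescence. The RNA switches were transcribed on Illumina chips by stalled E. coli RNA polymerase. SNAP-549-labelled MS2 coat protein was titrated from 0.7 or 1.5 nM, doubling up to 3 µM, in Tris-HCl pH 7.5 buffer containing KCl, MgCl2, BSA, DTT, tRNA and Tween-20, with no input, 200 uM small-molecule ligand, or an oligonucleotide input.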

The mark [1] stands for this setting: Eterna round: R95, input ligand: FMN 200 uM.
Setting [2] is: Eterna round: R95, input ligand: microRNA oligo, concentration not stated.
[3] abbreviates: Eterna round: R95, input ligand: none.
The mark [4] stands for this setting: input ligand: microRNA oligo, concentration not stated.

In the case of “AAAGAACAUGAGGAUCACCCAUGUGGAAGAGGCACAGGAUAUCACCUCGCAAGUGCAAGGUGAGAAGGGUGAUGAU [Islaonen] (puzzle: Same State 1)”, the “apparent KD of MS2 coat protein” value under setting [1] worked out at 0.123 µM, the “apparent KD of MS2 coat protein” value under setting [2] is 0.425 µM and the “apparent KD of MS2 coat protein” value under setting [3] came to 0.205 µM.
“AACAAUCUAUCUGAGGAUAUCAUGAAAUAAACAUGAGGAUCACCCAUGUGCAGGAAAACUGCAUAUGAGAAGGCAGAUUGAUUGA [salish99_ss2_r3_054] (puzzle: Same State 2)”: the “apparent KD of MS2 coat protein” value under setting [1] is 0.056 µM, the “apparent KD of MS2 coat protein” value under setting [2] came out at 2.56 µM and the “apparent KD of MS2 coat protein” value under setting [3] turned out to be 1.28 µM.
“AACAAUCUAUCUGAGGAUAUCAUGAAAUAAACAUGAGGAUCACCCAUGUUCAGGAAAACUGCAUAUGAGAAGGCAGAUAGAUUGA [salish99_ss2_r3_035] (puzzle: Same State 2)”: the “apparent KD of MS2 coat protein” value under setting [1] stood at 0.0104 µM, the “apparent KD of MS2 coat protein” value under setting [2] is 0.0162 µM and the “apparent KD of MS2 coat protein” value under setting [3] came to 0.0153 µM.
The like results for “AACAAUCUAUCUGAGGAUAUCAUGAAAUUAACAUGAGGAUCACCCAUGUGCAGGAAAACUGCAUAUGAGAAGGCAGAUAGAUUGA [salish99_ss2_r3_033] (puzzle: Same State 2)” were, in that order, 0.12 µM, 1.11 µM and 2.02 µM.
On to “AACAUGUGGUGUUACAUGAGGAUCACCCAUGUGGCAAAAGCUGAGGAUAUCAUUAAACCCAUGAAUGAGAAGGUAGGAUCACAA [AK SSNG3-V2-20] (Eterna round: R96, puzzle: Same State NG 3)”, for which the “apparent KD of MS2 coat protein” value (input ligand: FMN 200 uM) turned out to be 0.0852 µM, the “apparent KD of MS2 coat protein” value under setting [4] turned out to be 0.124 µM and the “apparent KD of MS2 coat protein” value (input ligand: none) was 0.127 µM.
The like results for “AACCCAUCGGGAGGAUAUGGCACCUUAUUGGUGCCAGAAGGUCCAACAUGAGGAUCACCCAUGUGGGAGCCGUCGAAAGACGGC [Fiskers NG1ss - 7] (Eterna round: R96, puzzle: Same State NG 1)” were, in that order, 0.27 µM, 0.0665 µM and 0.293 µM.
Consider “AACCUACAUGAGGAUCACCCAUGUGUCUAAGGCACAGGAUAUCGACAGGCAAGACGCCUGCGAGAAGGGUGACCUA [Erononer] (puzzle: Same State 1)”, for which the “apparent KD of MS2 coat protein” value worked out at 0.0587 µM under setting [1], 0.0344 µM under setting [2] and 0.262 µM under setting [3].
As for “AACGUGGGAGCACAGGAUAUGCAUUGCUCCACAUGAGGAUCACCCAUGUAGGCAAAUAGGGAGCAGCAGAAGGGUGGUCCGACAC [Orraonrexe] (puzzle: Same State 2)”, the “apparent KD of MS2 coat protein” value came to 0.0173 µM under setting [1], 0.00824 µM under setting [2] and 0.0218 µM under setting [3].
Consider “AACUUACGACCACAGGAUAUACUGAGGCGGACAUGAGGAUCACCCAUGUAGGCAAAAUAAGGGCAGUAGAAGGGUGGUCUUUACA [Usbiraxe] (puzzle: Same State 2)”, for which the “apparent KD of MS2 coat protein” value under setting [1] is 0.0184 µM, the “apparent KD of MS2 coat protein” value under setting [2] was determined as 0.0188 µM and the “apparent KD of MS2 coat protein” value under setting [3] is 0.0275 µM.
With “AAGAAACAUGAGGAUCACCCAUGUAGAAAUAUGGGAGGAUAUACGAGGACGAAAGUCAAAGUAGAAGGCCUAAGAA [Mat - Same State 1 - Meechl mod - D130] (Eterna round: R96, puzzle: Same State 1)”, the “apparent KD of MS2 coat protein” value is, setting by setting: (input ligand: FMN 200 uM) 0.0214 µM; under setting [4], 0.0545 µM; (input ligand: none) 0.0638 µM.
“AAGCAGAGGCAAGGAUAUGUGAAGACCCAGCCUAGGCUGGGCACAUGAGGAUCACCCAUGUACAAACAGAAGGUGUAACCAGGC [Eternabot solution 18] (Eterna round: R96, puzzle: Same State NG 2)”: the “apparent KD of MS2 coat protein” value (input ligand: FMN 200 uM) stood at 0.0405 µM, the “apparent KD of MS2 coat protein” value under setting [4] worked out at 0.116 µM and the “apparent KD of MS2 coat protein” value (input ligand: none) is 0.161 µM.
On to “AAGCGCUGUCGAGAGGAUAUGCGGUGAUGGACAUGAGGAUCACCCAUGUUAGCGAUAGCAUUACGGUAGAAGGCUCUACAGCUGA [Mat - Same State 2 - Mod of UCT - D86] (puzzle: Same State 2)”, for which the “apparent KD of MS2 coat protein” value worked out at 0.0283 µM under setting [1], 0.268 µM under setting [2] and 0.272 µM under setting [3].
On the same counts, the results for “AAGGUCUUCGUACAGGAUAUGCACUUGUGCACAUGAGGAUCACCCAUGUGGGAAAAGGUCACAGGGCAGAAGGGUAUUUAUAAAA [Erriti] (puzzle: Same State 2)” are 0.0394 µM, 0.0666 µM and 0.103 µM.
For the sequence “AAGUAGCGAGAGCUACACAAAAAGUUUGUACAUGAGGAUCACCCAUGUUGUACAAGCUUUUUGCUCGUCUUAAAAAA [Mat - Sensor - JL mod - D14] (Eterna round: R96, puzzle: Sensor for hsa-mir-208a)”, the “apparent KD of MS2 coat protein” value is, setting by setting: (input ligand: FMN 200 uM) 0.0774 µM; under setting [4], 0.0116 µM; (input ligand: none) 0.0841 µM.
Take “AAGUGAAUAGUGAUUACAUGAGGAUCACCCAUGUGGUGGAUGCAGGAUAUUAUUAGACCGUACAAUAAGAAGGGCGUAAUCACC [Eternabot solution 44] (Eterna round: R96, puzzle: Same State NG 3)”: the “apparent KD of MS2 coat protein” value (input ligand: FMN 200 uM) came to 0.226 µM, the “apparent KD of MS2 coat protein” value under setting [4] was 0.27 µM and the “apparent KD of MS2 coat protein” value (input ligand: none) was 0.403 µM.
Regarding “AAUAAUCUAUCUGAGGAUAUCAUGAAAUAAACAUGAGGAUCACCCAUGUGCAGGAAAACUGCAUAUGAGAAGGCAGAUAGAUUGA [salish99_ss2_r3_020] (puzzle: Same State 2)”, the “apparent KD of MS2 coat protein” value is 0.0438 µM under setting [1], 0.551 µM under setting [2] and 1.16 µM under setting [3].
As for “AAUAUAUUAAGUGAGGAUAUCGAGGAAAAAACAUGAGGAUCACCCAUGUGGGUAAAAAAAAAAAGUGAGAAGGUGCUUAAUAUAU [Samwise Clockwise 10 - Jieux - Same State 2] (Eterna round: R96, puzzle: Same State 2)”, the “apparent KD of MS2 coat protein” value came out at 0.0349 µM (input ligand: FMN 200 uM), 0.0401 µM under setting [4] and 0.0691 µM (input ligand: none).
As to “AAUGCACAUGAGGAUCACCCAUGUAAGACAAAGACAGGAUAUGGGCCGCAUGGCUCUGGCCCAGAAGGGUCAGUCG [Biorinin] (puzzle: Same State 1)”, the “apparent KD of MS2 coat protein” value under setting [2] was determined as 0.0198 µM.
Take “AAUUAAGAUUGAGGAUAUCACGUCGAAUAGACGUGAGAAGGCGAUCAUAACAUGAGGAUCACCCAUGUAUUACAUGAAUUAAUU [SSNG1/5-B1] (Eterna round: R96, puzzle: Same State NG 1)”: the “apparent KD of MS2 coat protein” value (input ligand: FMN 200 uM) worked out at 0.0302 µM, the “apparent KD of MS2 coat protein” value under setting [4] came out at 0.0319 µM and the “apparent KD of MS2 coat protein” value (input ligand: none) was determined as 0.0323 µM.
On to “AAUUAAUUAAUACAUGAGGAUCACCCAUGUAAUUAUUAGAUCUAGGAUAUCAGCUCGAAUAGAGCUGAGAAGGAGAUCACAUGU [SSNG3/18-B1] (Eterna round: R96, puzzle: Same State NG 3)”, for which, under setting [4], the “apparent KD of MS2 coat protein” value was determined as 0.0145 µM.
“ACAAGCUUUUCUGUAUUGAAAGGUGGGAUACAUGAGGAUCACCCAUGUUUUUUUGUUUAUAUUUGUCCUCGUCUUAU [JR_SHM208A_Sub087] (puzzle: Sensor for hsa-mir-208a)”: the “apparent KD of MS2 coat protein” value under setting [1] was 0.0527 µM, the “apparent KD of MS2 coat protein” value under setting [2] worked out at 0.0332 µM and the “apparent KD of MS2 coat protein” value under setting [3] came out at 0.0467 µM.
Regarding “ACAUGAGACCUAGGAUAUAUUGUACCUACAUGUGACAUGAGGAUCACCCAUGUGGUAAGUAUGACAUAGAAGGAGGAGAUAUGU [Equivalance 93 - Jieux - Same State NG 2] (Eterna round: R96, puzzle: Same State NG 2)”, the “apparent KD of MS2 coat protein” value stood at 0.0315 µM (input ligand: FMN 200 uM), 0.0272 µM under setting [4] and 0.0547 µM (input ligand: none).
Turning to “ACAUGAGACCUAGGAUAUCUUGUACCUACAUGUGACAUGAGGAUCACCCAUGUGGUAAGUAUGAUAGAGAAGGAGGAGAUAUGU [Equivalance 55 - Jieux - Same State NG 2] (Eterna round: R96, puzzle: Same State NG 2)”, the “apparent KD of MS2 coat protein” value (input ligand: FMN 200 uM) was 0.0156 µM, the “apparent KD of MS2 coat protein” value under setting [4] turned out to be 0.0398 µM and the “apparent KD of MS2 coat protein” value (input ligand: none) was 0.0519 µM.
For the sequence “ACAUGAGACUUAGGAUAUCUUGUACCUACAUGUGACAUGAGGAUCACCCAUGUGGUAAGUAUGACAGAGAAGGAAGAGAUAUGU [Equivalance 68 - Jieux - Same State NG 2] (Eterna round: R96, puzzle: Same State NG 2)”, the “apparent KD of MS2 coat protein” value stood at 0.0404 µM (input ligand: FMN 200 uM), 0.0499 µM under setting [4] and 0.0797 µM (input ligand: none).
The like results for “ACAUGAGACUUAGGAUAUCUUGUACCUACAUGUGACAUGAGGAUCACCCAUGUGGUAAGUAUGAGGGAGAAGGAAGAGAUAUGU [Equivalence 38 - Jieux - Same State NG 2] (Eterna round: R96, puzzle: Same State NG 2)” were, in that order, 0.0308 µM, 0.021 µM and 0.0339 µM.
In the case of “ACAUGAGAGAAAGGAUAUCAUGUACCUACAUGUGACAUGAGGAUCACCCAUGUGGUAAGUAUGAGUGAGAAGGUUCAGAUAUGU [Equivalence 34 - Jieux - Same State NG 2] (Eterna round: R96, puzzle: Same State NG 2)”, the “apparent KD of MS2 coat protein” value turned out to be 0.0444 µM (input ligand: FMN 200 uM), 0.298 µM under setting [4] and 0.448 µM (input ligand: none).
On the same counts, the results for “ACAUGAGAUCUAGGAUAUAUAGUACCUACAUGUGACAUGAGGAUCACCCAUGUGGUAAGUAUGACAUAGAAGGAGAAGAUAUGU [Equivalance 96 - Jieux - Same State NG 2] (Eterna round: R96, puzzle: Same State NG 2)” are 0.0372 µM, 0.0509 µM and 0.0555 µM.
